Molecular target: T1, DAP12, endogenous in mouse cells (splenic cells, FL-PDC) (mouse, UniProt O54885 22-114, phosphorylated in CpG-A-stimulated FL-PDC (sites not given))
T1 construct: whole, on cells
Assay: association in CpG-A-stimulated FL-PDC (FIG. 20); method not described

T1 sequence (O54885 22-114): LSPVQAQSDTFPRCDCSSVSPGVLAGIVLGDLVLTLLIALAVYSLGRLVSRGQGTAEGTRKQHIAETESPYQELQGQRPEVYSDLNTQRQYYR

B1: membrane molecule (A) of the present invention (PDC-TREM), mouse, full length (receptor)
chain: QNPELLRTQEGETVSVTCWYDSLYHSSEKIWCKQIDNLCYPFVSKSAEKPRFLIQQSSRFNFFTVTMTKLKMSDSGIYHCGIVANNTSVYLRNIHLVVSKGSSVVSTPDIIPATRLTKLPTLITTKHSPSDTTTTRSLPQPTTVVSSPDPRVIIINGTDADRGFVSSVTIPVVCGLLSKTLVFTVLFIVTQKSFGRQAMKAHNSNS
notes: also called the present membrane molecule
B1: binds.

From patent US20090162869A1 (RIKEN, published 2009)
